Laboratory results as given in PMC7055916.

Molecular target: T. brucei PNUTS with PTP tag, bloodstream form (T. brucei)
Test: co-sedimentation; extracts of bloodstream form T. brucei expressing PNUTS-PTP and JBP3-HA or Wdr82-HA on 5-50% sucrose gradients, 38000 rpm 18 hours, fractions analysed by western blot

Row | Substance | stoichiometry N
1 | T. brucei JBP3 with 3x HA tag, bloodstream form (natural protein) | 1
2 | T. brucei Wdr82 with 3x HA tag, bloodstream form (natural protein) | 1
